Article PMC4972137 (The EMBO Journal, 2016)
Positions count from the first letter of the chain named. Numbers in names are those of the source.

B1: NavMs sodium channel pore protein (wild-type pore of NavMs from M. marinus MC-1 with its complete C-terminal domain) (domain or fragment, Magnetococcus marinus MC-1)
chain: GVGSVAALLTVVFYIAAVMATNLYGATFPEWFGDLSKSLYTLFQVMTLESWSMGIVRPVMNVHPNAWVFFIPFIMLTTFTVLNLFIGIIVDAMAITKEQEEEAKTGHHQEPISQTLLHLGDRLDRIEKQLAQNNELLQRQQPQKK
B2: NavMs sodium channel pore protein, E178D selectivity filter mutant (domain or fragment, Magnetococcus marinus MC-1)
chain: B1 chain with E49D

Molecular target: the molecule itself
Experiment: crystal structure; NavMs pore crystals grown in the presence of sodium ions; open conformation; four identical chains arranged in two half-tetramers, with the tetramers completed by crystal symmetry

Protein | stoichiometry N
B1 | 4
B2 | 4
